Assay results as given in patent publication US20230365705A1 (DYNAMICURE BIOTECHNOLOGY, published 2023).
Read-outs that look alike come from different tables or passages of the source. Each block holds one binder with its values, some of them ahead of it.

Experiments:
[1] = molecular target: T1, Mouse CD93 on cells (mouse CD93 expressing CHO cells; mouse CD93 expressing HEK cells) (mouse, UniProt O89103 23-644); assay: summary table; method and form of mouse CD93 not given
T1 construct: whole, on cells; also called mCD93 HEK; CD93-HEK cells
T1 sequence (looked up): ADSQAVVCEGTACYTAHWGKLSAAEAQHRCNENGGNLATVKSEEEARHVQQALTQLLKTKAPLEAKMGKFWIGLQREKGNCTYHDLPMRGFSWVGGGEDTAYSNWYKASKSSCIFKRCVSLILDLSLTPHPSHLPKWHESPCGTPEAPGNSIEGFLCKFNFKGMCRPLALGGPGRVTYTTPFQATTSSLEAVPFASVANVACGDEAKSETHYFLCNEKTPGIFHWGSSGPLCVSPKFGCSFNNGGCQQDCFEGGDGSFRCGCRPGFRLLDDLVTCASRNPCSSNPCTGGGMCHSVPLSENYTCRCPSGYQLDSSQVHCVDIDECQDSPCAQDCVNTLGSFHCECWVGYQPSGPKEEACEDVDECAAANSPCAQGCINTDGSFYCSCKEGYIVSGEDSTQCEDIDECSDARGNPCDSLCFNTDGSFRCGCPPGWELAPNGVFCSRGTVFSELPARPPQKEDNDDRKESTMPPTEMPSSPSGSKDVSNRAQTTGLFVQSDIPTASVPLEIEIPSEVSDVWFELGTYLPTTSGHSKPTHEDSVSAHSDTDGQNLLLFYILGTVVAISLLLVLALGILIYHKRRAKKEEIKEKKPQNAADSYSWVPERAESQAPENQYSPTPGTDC

[2] = molecular target: T2, Human CD93 on cells (human CD93 expressing CHO cells; HUVEC, U937 and KG1a cells) (human, UniProt Q9NPY3 22-652); assay: flow cytometry titration, CHO-hCD93 cells; antibody stored 2 weeks at 40 C
T2 construct: whole, on cells; also called hCD93 expressing CHO cells; hCD93 CHO cells
T2 sequence (looked up): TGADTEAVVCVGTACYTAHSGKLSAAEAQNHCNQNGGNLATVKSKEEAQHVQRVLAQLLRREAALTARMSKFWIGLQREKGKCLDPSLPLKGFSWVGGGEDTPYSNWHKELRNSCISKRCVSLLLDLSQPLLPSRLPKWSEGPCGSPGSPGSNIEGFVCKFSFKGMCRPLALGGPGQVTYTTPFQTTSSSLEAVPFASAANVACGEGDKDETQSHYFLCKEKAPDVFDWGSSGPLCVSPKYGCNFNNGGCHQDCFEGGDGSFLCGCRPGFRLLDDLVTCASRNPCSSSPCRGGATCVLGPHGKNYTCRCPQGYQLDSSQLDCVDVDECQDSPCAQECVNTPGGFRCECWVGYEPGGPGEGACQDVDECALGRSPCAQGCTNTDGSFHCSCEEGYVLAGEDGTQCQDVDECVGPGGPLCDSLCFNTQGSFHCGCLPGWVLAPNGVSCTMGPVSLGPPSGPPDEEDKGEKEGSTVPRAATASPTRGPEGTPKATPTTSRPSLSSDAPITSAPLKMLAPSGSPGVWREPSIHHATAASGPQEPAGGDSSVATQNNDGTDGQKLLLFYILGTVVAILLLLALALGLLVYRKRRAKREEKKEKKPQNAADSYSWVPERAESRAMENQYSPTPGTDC
Experimental: (§1) Human CD93 expressing CHO cells were detached by incubation with TrypLE reagents (Thermo Fisher), which preserves the integrity of CD93 on the cell surface. Then the cells were incubated with serial diluted anti-CD93 antibodies for 30 minutes in 4° C. After washing by FACS buffer, the cells were incubated with Alexa Fluor 647 conjugated anti-human IgG (Jackson ImmunoResearch) for 30 minutes at 4° C. After washing by FACS buffer twice, the samples were acquired in NovoCyte Flow Cytometer and analyzed by NovoExpress software.

[3] = molecular target: T3, Human CD93 recombinant protein (Sino Biological Inc, Catalog #12589-H08H) (human, UniProt Q9NPY3 22-580); assay: BLI (Octet QKe), biotinylated human CD93 on streptavidin biosensors; antibody stored 2 weeks at 40 C
T3 construct: Biotinylated (EZ-LINK NHS-PEG4 biotin) in the BLI assays; also called hCD93; His-tagged human CD93
T3 sequence (looked up): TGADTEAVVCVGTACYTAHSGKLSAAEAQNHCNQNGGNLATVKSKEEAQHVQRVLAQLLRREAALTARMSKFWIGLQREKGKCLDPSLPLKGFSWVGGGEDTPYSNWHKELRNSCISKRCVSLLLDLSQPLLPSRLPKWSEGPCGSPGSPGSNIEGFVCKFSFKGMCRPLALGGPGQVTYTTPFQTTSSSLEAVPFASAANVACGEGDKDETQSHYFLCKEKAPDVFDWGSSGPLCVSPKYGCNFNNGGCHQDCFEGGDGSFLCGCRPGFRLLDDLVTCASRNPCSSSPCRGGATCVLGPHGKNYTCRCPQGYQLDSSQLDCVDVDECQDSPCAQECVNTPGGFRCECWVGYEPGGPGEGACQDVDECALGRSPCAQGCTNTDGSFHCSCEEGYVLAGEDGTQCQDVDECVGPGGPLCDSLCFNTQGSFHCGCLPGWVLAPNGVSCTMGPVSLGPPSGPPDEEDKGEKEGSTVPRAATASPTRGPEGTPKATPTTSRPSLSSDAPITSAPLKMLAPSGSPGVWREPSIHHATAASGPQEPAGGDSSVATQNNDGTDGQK
Experimental: The binding affinity of anti-CD93 antibodies was determined with bio-layer interferometry using Octet QKe (Fortebio). […] Human CD93 recombinant protein (Sino Biological Inc, Catalog #12589-H08H) was biotinylated using EZ-LINK NHS-PEG4 biotin (Thermo Fisher Scientific). Streptavidin biosensors (Fortebio) were used to load biotinylated CD93 protein (300 seconds in 5 μg/ml). Baseline was stabilized for 60 seconds in 1× kinetics buffer (Fortebio) before anti-CD93 antibodies, at a serial dilution, were allowed to associate for 300 seconds with captured protein. Then the sensors were dissociated in 1× kinetics buffer for 600 seconds. […] (FIG. 42).

[4] = molecular target: T2, Human CD93 on cells (human CD93 …); assay: flow cytometry titration, CHO-hCD93 cells; antibody stored 2 weeks at 40 C; remark: listed apart in the source
Experimental: as §1, with “minutes at” for “minutes in”, “minutes in” for “minutes at”

- binding result [1]: no binding
B1: 16E4 (hybridoma) (antibody, IgG2a, V domains shown)
VH: QVQLQQPGAELVKPGASVKLSCKASGYTFTSYWMHWVKQRPGQGLEWIGEIDPSASYTYYNQKFKGKATLTVDKSSSTAYMQLSSLTSEDSAVYYCARSVYYGNKYFDVWGAGTTVTVSS
VL: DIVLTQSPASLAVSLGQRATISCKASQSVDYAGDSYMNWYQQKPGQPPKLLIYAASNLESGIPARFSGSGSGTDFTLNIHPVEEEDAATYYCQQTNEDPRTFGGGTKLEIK
notes: also called 16E4 mAb; 16E4 mIgG2a

- EC50 [2]: 0.194 nM
B2: h7F3 (humanized 7F3, VH3+VL3) (antibody, human IgG1, V domains shown)
VH: QVQLVQSGAEVKKPGASVKVSCKASGYTFTDYEMHWVRQAPGQGLEWMGGIDPETGDTAYNQNFKGRVTMTTDTSTSTAYMELRSLTSDDTAVYYCTNYGNLYYYAMDYWGQGTSVTVSS
VL: EIVLTQSPSSLSASVGDRVTITCRASSSVSSSYLHWYQQKPGKAPKLLIYSTSNLAFGVPSRFSGSGSGTSYTFTISSLQPEDIATYYCQQYSGYPLTFGSGTKLEIK
notes: also called humanized 7F3-hIgG1

- Kd [3]: 0.0204 nM
- koff [3]: 5.08e-06 s⁻¹
- kon [3]: 249000 M⁻¹ s⁻¹
- EC50 [4]: 0.274 nM
B3: h16E4 (humanized 16E4, VH4+VL6) (antibody, V domains shown)
VH: QVQLVQSGAEVKKPGASVKVSCKASGYTFTSYWMHWVRQAPGQGLEWMGEIDPSASYTYYNQKFKGRVTMTRDKSSSTVYMELSSLTSEDSAVYYCARSVYYGNKYFDVWGAGTTVTVSS
VL: DIQMTQSPSTLSASVGDRVTITCKASQSVDYAGDSYMNWYQQKPGKAPKLLIYAASNLESGVPSRFSGSGSGTEFTLTISSLQPDDFATYYCQQTNEDPRTFGGGTKLEIK
notes: Detected with anti-human IgG, so a human Fc
